Reference: publication PMC3335814, “Structure of an Enzyme-Derived Phosphoprotein Recognition Domain” (PLoS ONE, 2012)

T1: Dlg SH3-GK ΔHook (residues 598-975 without 679-766), as it stands in the fusion (Drosophila, UniProt P31007-5 598-975, Δ679-766)
T1 construct: Existed only joined to m11 on one chain; written apart for the pair seen in the crystal structure; also called Dlg GK^dom and its adjacent SH3 domain; GK^dom; source: E. coli BL21(DE3), purified (NiNTA, anion exchange, size exclusion), as part of the fusion m8
T1 sequence (looked up): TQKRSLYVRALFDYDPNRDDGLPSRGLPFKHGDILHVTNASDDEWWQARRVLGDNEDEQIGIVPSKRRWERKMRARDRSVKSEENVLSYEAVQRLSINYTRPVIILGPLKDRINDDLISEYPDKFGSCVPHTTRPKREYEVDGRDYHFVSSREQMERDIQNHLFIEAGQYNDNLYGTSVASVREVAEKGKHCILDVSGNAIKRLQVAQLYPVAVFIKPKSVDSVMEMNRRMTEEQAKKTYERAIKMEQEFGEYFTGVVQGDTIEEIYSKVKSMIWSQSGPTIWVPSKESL


Legend:
[1] = target: Pins Linker peptide (residues 427-445), pSer436, TMR-labelled (UniProt Q9VB22); experiment: fluorescence polarisation; conditions: read from the fitted curve at 20 µM Dlg-GK; parent: est. 0.11; read off a plot
[2] = target: Pins Linker peptide (residues 427-445), pSer436, TMR-labelled (Drosophila) (UniProt Q9VB22); experiment: fluorescence polarisation; steady state anisotropy of 0.5 µM TMR-labelled Pins peptide (427-445) with increasing concentrations of Dlg constructs; 20 mM Tris pH 8, 100 mM NaCl, 1 mM DTT; nonlinear regression
[3] = target: Pins Linker peptide (residues 427-445), unphosphorylated, TMR-labelled (Drosophila) (UniProt Q9VB22); experiment: as above
[4] = target: T1, Dlg SH3-GK ΔHook (residues 598-975 …); experiment: crystal structure; Dlg SH3-GK ΔHook and Pins Linker S436D joined on one chain; vapor diffusion, 2 M NaCl, 0.1 M NaOAc pH 4.6; data to 1.6 Å; one molecule in the asymmetric unit; conditions: both partners purified

response [1]	Kd [2]	Molecule	other results
–	800 nM	Dlg GK domain (isolated GK^dom) (domain or fragment)	Kd [3]: > 200000 nM
0.017	–	Dlg GK domain (isolated GK^dom) Y831A	–
0.08	–	Dlg GK domain (isolated GK^dom) Y855A	–

The remaining lines, values behind:

Molecule	response [1]	Kd [2]	other results
Dlg GK domain (isolated GK^dom) R822A	0.083	–	–
ΔHook/Pins^S436D fusion protein (Dlg 598-975 without 679-766, fused to Pins 411-460 S436D) (from UniProt P31007-5 598-975; Q9VB22 411-460)	–	14000 nM	–
Dlg SH3GK fused to Pins Linker without the phosphomimetic (from UniProt P31007-5 598-975; Q9VB22 411-460)	–	300 nM	–
Dlg SH3-GK module (domain or fragment)	–	300 nM	–
Dlg GK domain (isolated GK^dom) Y824A	0.11	–	–
DHSASGNQSDGSENSQGRMVRVRRQDMEQLDLIKITPDGKRMQEEKLRAQ (domain or fragment, Drosophila, UniProt Q9VB22 411-460, looked up, Partner of Inscuteable (Pins), Linker, residues 411-460, phosphomimetic S436D; Existed only joined to m10 on one chain; written apart for the pair seen in the crystal structure; also called Pins^LINKER S436D; Pins^S436D; source: E. coli BL21(DE3), purified (NiNTA, anion exchange, size exclusion), as part of the fusion m8) [Pins Linker (residues 411-460) S436D, as it stands in the fusion]	–	–	binding result [4]: binds
